Test results reported in patent publication US20190077883A1.

Columns and labels:
[1] = target: GST-tagged human FcRn (human; Schistosoma japonicum) (UniProt P55899); assay: ELISA pH 6.0, h9C12 variant captured on AdV5 hexon, GST-hFcRn detected with anti-GST-HRP
[2] = target: Monomeric His-tagged human FcRn (human) (UniProt P55899); assay: SPR Biacore 3000, pH 6.0, KD against IgG1 WT
[3] = target: Monomeric His-tagged human FcRn (human) (UniProt P55899); assay: SPR Biacore 3000, IgG immobilised, monomeric hFcRn injected, pH 6.0, 1:1 Langmuir
[4] = target: Monomeric His-tagged human FcRn (human) (UniProt P55899); assay: SPR Biacore 3000, IgG immobilised, monomeric hFcRn injected, pH 7.4
[5] = target: recombinant human FcRn (SPR of Example 2) (human) (UniProt P55899); assay: SPR Biacore T200, IgG immobilised, hFcRn 1000.0-15.6 nM injected, pH 6.0, 25 C, 1:1 Langmuir
recombinant human FcRn (SPR of Example 2) (human), sequence (P55899 24-290 limits assumed, form in doubt): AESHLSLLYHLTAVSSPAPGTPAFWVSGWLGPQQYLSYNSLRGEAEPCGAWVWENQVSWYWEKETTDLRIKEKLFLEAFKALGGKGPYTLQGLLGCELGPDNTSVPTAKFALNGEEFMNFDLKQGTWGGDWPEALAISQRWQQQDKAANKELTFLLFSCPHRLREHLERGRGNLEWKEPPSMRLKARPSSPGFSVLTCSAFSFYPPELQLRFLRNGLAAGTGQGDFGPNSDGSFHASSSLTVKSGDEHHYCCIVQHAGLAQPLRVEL

[6] = target: recombinant human FcRn (SPR of Example 2) (human) (UniProt P55899); assay: SPR Biacore T200, pH 6.0, KD against IgG1-WT

Monomeric His-tagged human FcRn (human), sequence (P55899 24-290 limits assumed, form in doubt): as above
GST-tagged human FcRn (human; Schistosoma japonicum), sequence (P55899 24-297, chain 1 of 2): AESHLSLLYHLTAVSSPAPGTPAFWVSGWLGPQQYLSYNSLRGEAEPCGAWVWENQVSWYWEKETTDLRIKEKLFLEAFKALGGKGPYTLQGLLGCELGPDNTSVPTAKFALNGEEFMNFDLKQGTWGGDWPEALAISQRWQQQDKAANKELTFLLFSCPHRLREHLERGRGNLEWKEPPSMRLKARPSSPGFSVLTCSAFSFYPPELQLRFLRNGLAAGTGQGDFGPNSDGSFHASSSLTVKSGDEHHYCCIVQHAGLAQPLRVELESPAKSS
GST-tagged human FcRn (human; Schistosoma japonicum), sequence (P61769 21-119, chain 2 of 2, further chain): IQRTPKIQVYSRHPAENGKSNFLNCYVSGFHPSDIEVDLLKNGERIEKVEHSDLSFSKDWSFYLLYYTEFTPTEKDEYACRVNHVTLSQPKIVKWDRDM

Substance	Fold change from WT (ELISA) pH 6.0 [1] [fold]	Fold change from WT [2] [fold]	Kd [3] [nM]	koff [3] [s⁻¹]	other results
h9C12 IgG1-L309K/Q311R/N434W/M428E (antibody)	6	–	–	–	–
h9C12 IgG1-L309R/Q311R/N434W/M428E (antibody)	6	–	–	–	–
h9C12 IgG1-L309S/Q311R/N434W/M428E (antibody)	6	–	–	–	–
h9C12 IgG1-M252S/Q311R/N434W/M428E (antibody)	6	–	–	–	–
h9C12 IgG1-M252Y/S254T/T256E (antibody)	–	8.4	93	0.0078	–
h9C12 IgG1-N434W (antibody)	–	52.9	14.8	0.0032	Kd [4]: 1980 nM
h9C12 IgG1-Q311R (antibody)	–	1.1	687	0.0572	–
h9C12 IgG1-Q311R/N434P/M428E (antibody)	3	–	–	–	Kd [5]: 24.2 nM; koff [5]: 0.0405 s⁻¹; Fold change from WT (KD) pH 6.0 [6]: 11.3 fold
h9C12 IgG1-Q311R/N434W (antibody)	–	35.1	22.3	0.0036	–
h9C12 IgG1-Q311R/N434W/M428D (antibody)	3	–	–	–	Kd [5]: 29.4 nM; koff [5]: 0.0312 s⁻¹; Fold change from WT (KD) pH 6.0 [6]: 9.28 fold
h9C12 IgG1-Q311R/N434W/M428E (antibody)	6	20.3	38.5	0.005	Kd [5]: 9.3 nM; koff [5]: 0.0111 s⁻¹; Fold change from WT (KD) pH 6.0 [6]: 29.3 fold
h9C12 IgG1-Q311R/N434W/M428E/H433K (antibody)	9	–	–	–	–
